Results as given in patent US12098206B2, “PDGF receptor antibody and use thereof” (Seoul National University R&DB Foundation, priority 2018, dated 2024).

System: NIH3T3 cells
Test: Internalization analysis by confocal microscopy in NIH3T3 cells
Type: cell-based, mouse
Details: 10 μg/mL, 37° C., 30 minutes, FIG. 4c
Protocol: The bispecific antibody of scFv-Cκ-scFv fusion protein was analyzed with a confocal microscope for visualizing internalization. NIH3T3 cells were treated with the bispecific antibody of scFv-Cκ-scFv (10 μg/mL) diluted in DMEM containing 10% FBS, and internalized at 37° C. for 30 minutes. After washing the cells 3 times with cold PBS, acidic buffer (0.2 M acetic acid, 0.5 M sodium chloride) was treated at room temperature for 5 minutes to remove the antibody bound to the cell surface. Cells were washed twice with cold PBS, fixed with 4% paraformaldehyde for 10 minutes, and then subjected to immunofluorescence staining as previously described [J. M. Lim et al., J. Cell. Biol. 210 (2015) 23].
Briefly, to block antibodies having non-specific reaction, cells were incubated in PBS containing 5% horse serum and 0.1% Triton X-100 for 30 minutes, and 2 μg/mL FITC-anti human Cκ antibody (TB28-2, BD Biosciences) was added at room temperature for 30 minutes. To image the initial endosomes, the cells were washed 3 times with PBS, incubated with PBS containing 5% horse serum and 0.1% Triton X-100 for 30 minutes, and then incubated with ati-RabS antibody diluted to 1:200 (C8B1, Cell Signaling Technology, Danvers, MA, USA). Alexa Fluor 546 goat anti-rabbit IgG (A-11035, Invitrogen) was sequentially treated. Cells were treated with 0.2 μg/mL DAPI to detect DNA. Confocal microscopy images were obtained using a Zeiss LSM 880 microscope, and images were analyzed with Zen software (Carl Zeiss, Thornwood, NY, USA).
To measure the cellular internalization of the bispecific antibody of scFv-Cκ-scFv, anti-mPDGFR-β x cotinine scFv-Cκ-scFv fusion protein was incubated in NIH3T3 cells, and then treated with FITC-anti-human Cκ antibody and endosome-specific antibody. It was imaged using a confocal microscope. […] When the images were merged, the present inventors confirmed that the fluorescence of the three antibody clones and the endosome-specific antibody were co-localized.

B1: PRb-CN01: anti-mPDGFR-β chicken scFv clone (VH SEQ ID NO 7, VL SEQ ID NO 8), tested as scFv-Cκ-anti-cotinine scFv bispecific antibody (antibody, V domains shown)
VH: AVTLDESGGGLQTPGGALSLVCKASGFTFSDRAMHWVRQAPGKGLEWVGLITNTGGSTNYGAAVKGRATISRDNGQSTVRLQLNNLRAEDTGTYYCTRGVGSWAHGGRIDAWGHGTEVIVSS
VL: LTQPSSVSANPGETVKITCSGGSGSYGWFQQKSPGSAPVTVIYSNNQRPSDIPSRFSGSKSGSTNTLTITGVQAEDEAIYYCGTRDSSYVGIFGAGTTLTVL
modifications: VH of PRb-CN01; VL of PRb-CN01
  cellular internalization: Intracellular fluorescence was detected
